Experimental findings from patent publication EP4700046A1 are described below.

This experiment has as its target 6xHis-SUMO-CXCR2(NTD) (human) (UniProt P25025). As to the kind of experiment: BLI (Octet R4), His-tagged SUMO-CXCR2(NTD) on HIS1K biosensor, IgG as analyte, 1:1 model. For orientation: In BLI a coated tip is dipped into the sample, and binding shifts an interference pattern.

Where a chain is given by its changes, count along the chain named.

Chain of UniProt P25025 (P25025 1-48): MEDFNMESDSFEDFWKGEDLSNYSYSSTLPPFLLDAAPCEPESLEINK

B1: IgG_18 (antibody, part only; not given: VL CDR2; constant regions, V domains shown, part only)
VH: EVQLLESGGGLVQPGGSLRLSCAASGFTFSNYAMSWVRQAPGKGLEWVSSISPSGSSKYYADSVKGRFTISRDNSKNTLYLQMNSLRAEDTAVYYCAKHNRHFDYWGQGTLVTVSS
VL, part: QSVLTQPPSASGTPGQRVTISCTGSSSNIGSHYVSWYQQLPGTAPKLLIYHRPSGVPDRFSGSKSGTSASLAISGLRSEDEADYYCGSWDDSLNAYVFGGGTKLTVL
B1 came in with a Kd of 8.9 nM.

B2: IgG_56 (antibody, part only; not given: VL CDR2; constant regions, V domains shown, part only)
VH: EVQLLESGGGLVQPGGSLRLSCAASGFTFSGYPMSWVRQAPGKGLEWVSSISSSGGNTYYADSVKGRFTISRDNSKNTLYLQMNSLRAEDTAVYYCARFGIHHPDRALYYANAMDVWGQGTLVTVSS
VL, part: B1 VL, part with T23S, S31N, H32N, Y33D, S35N, H51Q, G87A, S88T, D91A, N94S
With B2, the Kd was found to be 5.6 nM.

B3: IgG_54 (antibody, part only; not given: VL CDR2; constant regions, V domains shown, part only)
VH: EVQLLESGEGLVQPGGSLRLSCAASGFTFSNYSMSWVRQAPGKGLEWVSGISSGGGSKYYADSVKGRFTISRDNSKNTLYLQMNSLRAEDTAVYYCARQATAFDYWGQGTLVTVSS
VL, part: B1 VL, part with S31N, H32N, Y33S, S35T, H51N, S88T, N94S, G99C
As to B3, the Kd was determined as 250 nM.

For orientation: Kd means the concentration at which binding is half-saturated.
